Measurements: the supplement of paper PMC9170038

System: K4 kissing-loop RNA reporter
Test: apparent KD of K4 kissing-loop reporter; higher = weaker reporter binding
Conditions: Eterna round: R107
Method: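 RNA-MaP round R107: designed RNA switches with theophylline, tryptophan, arginine or FMN aptamers are transcribed on-chip within common flanks. They are titrated with a labelled K4 kissing-loop RNA reporter in RNA-MaP buffer (100 mM Tris pH 7.5, 80 mM KCl, 4 mM MgCl2), without ligand or with the indicated ligand. Median apparent KD per design.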

[1] = input ligand: theophylline 20 uM
[2] = input ligand: tryptophan 2.4 mM
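Note: bound reporter read as fluorescence of individual clusters on recovered sequencing chips by microscopy, with normalized cluster intensities fitted with a binding model.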

| Sequence | apparent KD of K4 kissing-loop reporter (input ligand: FMN 200 uM) [nM] | apparent KD of K4 kissing-loop reporter (input ligand: arginine 13.2 mM) [nM] | apparent KD of K4 kissing-loop reporter (input ligand: none) [nM] | apparent KD of K4 kissing-loop reporter [1] [nM] | apparent KD of K4 kissing-loop reporter [2] [nM] |
| --- | --- | --- | --- | --- | --- |
| GACCUAAGCUAUGAUACCAGUCUGGCACGAAGAAGUGAUGUUUCCCAGCGUUUGUCACUUGACCCUUGGCAGCAUGCGAUCAGCU [theeternabot_sameState_KL_Theo_B_29] | 197 | 106 | 151 | 165 | 128 |
| AAGGCCACGAGAAGGAGCGUGCUGUGGAGUGAUGUUCCAUUGUAGACCUAAGGUCUACGAGCACAGGUAGGUCGCUCGUGGUCAA [Omei KL Arginine B SS A v4] | 113 | 97.4 | 95.3 | 102 | 99.6 |
| UUAUAUUUUAUAUUUAGUAGAGCUCUAGCUCGAGGACCGGUACGGCCGCCACUCGAGUGAUGUUCGAGUGGAAGAGCUCUACAUU [AK3.1 EXC Tryptophan A] | 114 | 99.9 | 110 | 98.2 | 435 |
| UGUGUUUACCUGACUCAGUGAUGUUGAGAAGGAGCGUGCUAAGGCACAGGUAGGUCGCUCAACCUAAAUUCAGGUGAGCACUAAA | 305 | 351 | 197 | 274 | 207 |
| AAGUGUGUGGCGGCCGCCACUAGAAUCCAGUGAUGUUGGAGUUAUCAUAUAAAUGAUAAUCAACAUAGGACCGGGCCAUAUAGAA [Same State - Tryptophan B (Freestyle 7)] | 639 | 523 | 550 | 745 | 783 |
| AAGUGAUGUUGUAGUGAUGUUGUGAUGUUGCAGGAUAUAUAGUGAUGUAGAAGGGUAUGUACAGAUUUUUUUUUUGAGUGAUGUU [ffdcmullin] | 112 | 45.5 | 73.8 | 59 | 81.4 |
| UAAAUAAUAAAACGAGUGAUGUUCGACGAUACCAGCCUCGAUAGAGGCCCUUGGCAGCGUAAAUGAUCACAAAGCCAAGGUAUAA [#01 K4 Theophylline A Exclusion] | 165 | 183 | 159 | 199 | 138 |
| GUGGAAUUAUGAAAGUGGUUUUAUAAGGAAGGAGCGGCCGAAAGGCCAGGUAGGUCGCCUAUUGACAGUGAUGUUGUUAUAUGGA [#13] | 105 | 180 | 103 | 168 | 75 |
| UGUAUGUGAUUUGAUACCAGACCAGCUGGUGGUACCUGAGUGAUGUUCGGGAUGGUUUGGGUCCCUUGGCAGCAAAUCGCAUACU [KL-SSTheoB20] | 251 | 144 | 164 | 148 | 170 |
| AGCCGUCUAAGUGAUGUUUAGGCAUGUCAGCGAGGACCGGUACGGCCGCCACUCGUGCUAUUGAGAUUUCGGGUAGCCCACGUAG [theeternabot_sameState_KL_Trp_A_20] | 288 | 187 | 271 | 125 | 163 |
| UGGAUUAGGACGGCCGCCACUACGCUGGCAUGAGUGAUGUUCUAAGGCUUGUCAAAGAUCCAGAGUAGGACCGGGUCCAAUGACU [theeternabot_exclusion_KL_Trp_B_38] | 293 | 225 | 275 | 261 | 271 |
| AGAGUCGGCUGUGAUACCAGUCGUAUUACAACAUGUCGCAGUGAUGUUGCGAGAUAGGAUGACCCUUGGCAGCACUCAGUACGAU [Same State Theophylline B GF 8] | 347 | 277 | 421 | 503 | 323 |
| AAUGUACAGGGAAGGAGCGUCGUCCAGUGAUGUUGGAGUUAAAUACCAGUGAUGUUGGUUAGGCAGGUAGGUCGCCCUAAAGUAG [#09 K4 Arginine B Exclusion] | 102 | 71.4 | 80.1 | 86.5 | 82.1 |
| UUGUUUGGUUGAGAGGUUGGGCGAGAUGAUACCAGUAUAGUAUAGUACCCUUGGCAGCAUAGGAGAGAUAUAGUGAUGUUGUAUG [SSTheophA.V] | 424 | 288 | 493 | 372 | 373 |
| GCUAUGGUAGGAAGGAGCGCUUAUUUAUUUUUACGAGUGAUGUUCGGUAGUAGAUAGUUAAAGCAGGUAGGUCGCCUACUAUAGC [Arginine B K4 16] | 141 | 112 | 148 | 135 | 123 |
| UUUAUUAAGACGGCCGCCACUGAUUCAUAGUGAUGUUAUGAUAUAAUCUUAGUGAUAUUUAUAAACAGGACCGGGUCAAUUAUUA [JR_SSTryptoB_Sub026] | 221 | 173 | 192 | 166 | 162 |
| GGCAGUGAUGUUGCCAGUGGCAGAUGCGAAGGAGCGCGGUGAGACGCAGGUAGGUCGCGCAUUGAAAUUGCUGUCACUAGAAUGC [whbob_Ex_Arginine_A_2t127] | 258 | 285 | 283 | 305 | 208 |
| UCGAUAGCCAGCGAUACCAGCCCAGUGAUGUUGGGCACAUGGUUGCGGGAAAUCCUAUUGGGCCCUUGGCAGCGCUUGCAUGGGU [Anbixeza] | 127 | 118 | 119 | 107 | 110 |
| CUCGUGGGUUUGAGAGGGCUUGUGGGAAGUAAGGAUAUUUAGGGAGGAAGAAGGUACUAUAGAAUAUAGUGAUGUUAUAUAUGGG [SSFMNA.Y] | 301 | 224 | 289 | 406 | 244 |
| ACUAUCGAAAGAUAGUUCCCAGAGCUAGUAGAGGAUAUCUGGAAACAGAGAAGGCUACAAGAGUGAUGUUCUUCUAGCUUUGGGA | 403 | 291 | 316 | 337 | 349 |
| AGUGAUGUGGGAAGGAGCGGUAUAUGAGUUCAGUGAUGUUGAAGUGAUGCUGUAGUGAUGUGCCAGGUAGGUCGCCUAGAUGUUA [whbob_Ex_Arginine_B_2th165] | 374 | 217 | 395 | 194 | 290 |
| UGUCAUUGGUCUGAUACCAGCUUGAUCGGAAAACGAUCUGCUGGAGUGAUGUUCCAAUAAAGCCCUUGGCAGCAGACCGAUGACU [TheoBS 7 #SwitchBubble #StaticStem] | 854 | 569 | 991 | 961 | 763 |

| Sequence | apparent KD of K4 kissing-loop reporter (input ligand: FMN 200 uM) [nM] | apparent KD of K4 kissing-loop reporter (input ligand: arginine 13.2 mM) [nM] | apparent KD of K4 kissing-loop reporter (input ligand: none) [nM] | apparent KD of K4 kissing-loop reporter [1] [nM] | apparent KD of K4 kissing-loop reporter [2] [nM] |
| --- | --- | --- | --- | --- | --- |
| GUAAUCUUGCUCGAGUGAUGUUCGAGCGAAGGAGCGCGAGAAAUCGCAGGUAGGUCGCGCUCGAAAUAUGAGCGAACAAUUAUUA [Arg A Ex t2b] | 222 | 197 | 220 | 219 | 230 |
| GUAUCGCUAGGAGGAUAUUUCAAUUUGACUCUUUGAGUUUUUACGGAGUGAUGUUCCGUUUUACGGAAAGAAGGCCUAGUGAUAC [FMN B 15] | 121 | 138 | 162 | 159 | 161 |
| UUAAGGGUCCGAGGAUAUCUCCCAGUGAUGUUGGGCGAUACGGCCCUUAAGACUAAUGGUUGAAGGAGAGAAGGCGGCUCCCGAU [Edmaisle] | 146 | 120 | 128 | 136 | 112 |
| AAUUUAUUAACUGAUACCAGACUUAAUUAAUUGUAAAUUACUAGUGAUGUUAGUGAUUCUGUCCCUUGGCAGCAGUAUUUAUUAA [JR_ExcTheophyB_Sub011] | 98.3 | 120 | 113 | 139 | 92.5 |
| GGGCGUAUUCACCGAGUGAUGUUCGGAAGGAAGGAUAUUCAAGAUUGAAGAAGGUCCGGCCCAUCGGCCAUUAAACUUGAAAGGU [theeternabot_sameState_KL_FMN_A_48] | 171 | 113 | 139 | 162 | 117 |
| UUUUUGGAGAAUUAUAGUGAUGUUAUGAAGGAGGAUAUCUGGAGAUGGAGAAGGCCUAGUGGCUCAGCCCUGGAGGGUGGGUGGG [ExFMNA.aB] | 822 | 562 | 705 | 556 | 572 |
| UUGAGCCUGACGAAAGUCAGGCUCUGCGAGCGAGGACCGGUACGGCCGCCACUCGGUGCAGUGAUGUUGCAUGGCCGCAAGGCCG [#2 Exclusion - Tryptophan A Attempt #14 (HarryS)] | 309 | 300 | 289 | 312 | 456 |
| UGCUUUAUCAGAAGGAGCGGGUUGUUCAUAAUAAUAAUCAGUGAUGUUGAUAUAUGAUGAUUCCAGGUAGGUCGCUGAUAUAGCU [KL-XARG-B2] | 283 | 214 | 273 | 256 | 238 |
| GGGAGGAAAAUUUUCCUCAAAAGUUGGCUACAGGAUAUCGUGGGAAUGAGAAGGGUAACCGAGACGCCCAGUGAUGUUGGGUGCC [Antegete] | 415 | 247 | 318 | 251 | 245 |
| AAUUAAGUGACGGCCGCCACUAGGGUGAUUUUUUUGUUUGAGUGAUGUUUUGAUGUUUGAUUUUGUAGGACCGGGUUAGGUGAUG [juhmullin] | 332 | 295 | 426 | 404 | 252 |
| GCCGUACGCAUGGAUACCAGCAAUCAAACGUCAUGCGAAGUGAUGUUUCGCUUACGGUAGUGCCCUUGGCAGCCAUGCGUACGGC | 142 | 124 | 123 | 91.2 | 130 |
| CGCAGUGAUGUUGCUUUUAUUCUUGGUUAACGAGGACCGGUACGGCCGCCACUCGAUUUCUAUCUAUUCCAGUGUUUUUUUGAGU [JR_ExcTryptoA_Sub004] | 261 | 374 | 304 | 464 | 195 |
| UGUCAUGGAAACAUGAACGUUAAAAUAAAUCGAGGACCGGUACGGCCGCCACUCGUAUAGCGGUCAGUGAUGUUGACUGUAGUAC [KL-SSTryp-A form2 sub11 #dotplot2>1] | 107 | 110 | 109 | 109 | 101 |
| AGGUGCUACGGAAGGAGCGCACCAGUGAUGUUGGUGUGUGACCGUGACAUGGCAGUCAAGGUGCAGGUAGGUCGCCGUGGCCUUU [Geeseris] | 137 | 108 | 131 | 138 | 136 |
| CAGACAUGCGGUAGGUUCAAGCGCUGGGAAGGAGCGCAGAUGACUGCAGGUAGGUCGCCCAGUGAUGUUGGGCUUUCCACCUAUG [Onbeenbi] | 110 | 122 | 120 | 150 | 107 |
| GGUAUCCAGUACCAUUGCGUUAAAACAGAAGGAGCGAGAAUAGACUCAGGUAGGUCGCUGUUUAUAGUCGAGUGAUGUUCGAAUC [Same State Arginine A GF 14] | 202 | 281 | 265 | 315 | 188 |
| AAAACUAUCAGAAGGAGCGUGGAAUAUACAUCUAUAUUUAAUACGAGUGAUGUUCGUAAUUCACAGGUAGGUCGCUGAUCAAUAA [whbob_Ex_Arginine_B_2th153] | 228 | 320 | 278 | 359 | 206 |
| UGAACUGUCUGCGAUACCAGCUAAGGAGUGAUGUUCCGGCUCGACGAAACGUCGAGCCAUAGCCCUUGGCAGCGCAGACAGUUCA [#28 K4 Theophylline B Same State] | 387 | 160 | 334 | 721 | 272 |
| AUACGUUUCAGAGGAUAUCGGAGGAGAGUGAUGUUCUCCCAUAGCCCAGUGAUGUUGGAAGCUAUCCGAGAAGGCUGUGGGCGUA [Same State FMN B GF 15] | 145 | 174 | 186 | 179 | 179 |
| UAUAUAGUGACGGCCGCCACUAUUGUGAUUUAAUUGUUAGAGUGAUGUUUUGUUGUUUGAUUUUGUAGGACCGGGUUAUAUGUUA [vnbbwzmullin] | 1090 | 851 | 982 | 794 | 839 |
| CGCAGUGAUGUUGCGAGUUCAUUCAGGGAAGGAGCGCCACAGAUGGCAGGUAGGUCGCCCACGCAGUGAUGUUGUGUAUUCGGGU [Exclusion Arginine A GF 2] | 202 | 153 | 165 | 170 | 137 |
